# From the supplement of paper PMC12636428
# Tested on: Saccharomyces cerevisiae
# Assay: transcriptional activation domain activity (GFP:mCherry ratio, weighted mean of sorted bins, harmonized to initial dataset scale) (arbitrary fluorescence ratio units); higher = stronger transcriptional activation
# Details: beta-estradiol 1 µM; induction time 4 h
# Protocol: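 53-aa protein tiles (fungal proteins plus yeast TF control tiles) fused C-terminally to a DBD-estrogen-binding domain-mCherry synthetic TF, integrated in S. cerevisiae (URA3 locus) with a GFP reporter. Cells were induced with 1 uM beta-estradiol for 4 h at 30 C, FACS-sorted into 8 bins by GFP:mCherry ratio and barcodes sequenced. Activity is the read-weighted mean bin fluorescence (GFP:mCherry), averaged over barcodes (median 12); tiles under 50 reads were discarded. New active-learning values were harmonized by linear fit onto the scale of the initial (Hummel et al.) dataset. The assay saturates at low and high signal.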
row,Sequence,transcriptional activation domain activity
1,LNGRRMMHEPLVYDMYEPQTPLIIIARVGVRLVFIVAKIGELPHCFIDEPPQQ,23200
2,MCVWELVLVLVVWCFRCFSFFHPLHFLPWLLYPSPLISLFFCLFYPLLFFVFF,37900
3,MLAKGVWLACMFFFFFFFRLSFLNGSWCEYFYYLLCFFNSSYFFSSLSLRISF,48300
4,NRKTIGKQDPYCAARLGKEAKKTDTDRRGGQTPRWDQELRYTVHDSPDYYQLK,33300
5,GASYVIFCLRYYYKGKRRRLTNRLVAYKRALLLVQFVFTHHKWPSYIVILESY,46200
6,EPAETPAETPAPVEPVVEEKKEETPAPVKETPAPTPNPAAAPAPQQQQPAAAK,26400
7,GLCYCHSIKLRHLLIPMEKLYLMGLILVQCYNGVLHSMLFGARYEFLPLMLTS,71000
8,MGLRTTPDYQKVEFTVTDIGLILKTLWICADLITFLFPLQRLVFHALVLLFSF,62300
9,KVKKKRRRSDSSDEDAIAALKAKRKKKKRADSDSDEEETSRKKSKSKRRRKAD,42800
10,LGYQIVLLLPWTLFCYCWTLCVVIFSLVAMIIPPLGYVCTIFSVTSWRALARV,69800
11,RKVGFILYVIMHMRINIVFAAFRLAKFNINPNSVYIKIINCVIKYLLKTMDYF,44700
12,MLLNMLMLWILYIFSVTTFSTFRYFIILPVPSLMDYSEFFRACMLGAFVLSPV,71000
13,MSWQKVHSLFFLYFILPHGGFLFLVIRNIFFFFTYDLVLLWSFKFLLHLYVIF,59800
14,IEHKYTTQVNVFFGIVFSELLKSNTAVRGCLMVGIARVAKSGWMSGLNHIEVF,68500
15,VSSCCPFPLFLFFSFFLSFFLPFLLSSFLSITQSSWPPFHCPCQDTFPFSLPF,28000
16,MTMRKSFEYSFSREIYFLFFFLFFSFLFFLSFLSFSLSLFFFFPLHPGLFRLV,54400
17,PRVLHGLELICHIAYLIIILHFIFDWRIDGHMPEWRFYGAREYILFIYSLSIL,31100
18,KGETAFVEVDEFNRRKDGKEEGGVHNSDMVIKVYLPPHFRVRIALFVLAIWAF,23800
19,GQATLRLLKESGRQSHAPIFIVGAFDGNRRQIGEGMGSSIKMAEFRAAEDALR,26300
20,LDLEHLFGIDIEQRFQSYVMTQQAWLMPYLARIYYSHISLGVCFLVYIYTFLP,44100
21,EKKVKAPKSPKKEKKKEEAEAAAPATEEPAKDEEPAAAEAPAAEEAPKEEAAA,41200

row,Sequence,transcriptional activation domain activity
1,ESGWIYVSVTTFFTSIALLGVMIACMVLRTHLFIWTVFSPKYLYSMAWSLGQH,55900
2,RDRKKRKVDGSEDSDDSDDDGTRGKGRGKSKSKGKGKSKEKKKKSSRKSKKAE,< 6570
3,NCMLRTIHLIWESNLSCTCIVNMLVLPCLHTLSITQCLYERKDKDPNPVILEA,59000
4,KGDLESFRRITDLNLTHEHARWFCRYHMFYQLGNYCEIYLWRSIFRKVFLLTG,54700
5,AAKRKTRADEHEEDEEEEHREATVVRRARGRPRKVEAPEPEAPVRATRGRATK,17000
6,YLVHAGVTQDFSLIGRKGVYSLGELEEIRHWVHQALLHCRLLLVCRKALQLVY,71800
7,MLSGLRHLRDEHIFAAAVGFFSHIYYYRYGEHHMQAPLLFWMHISVFLMLFYW,40100
8,IYYDPASRDKVYCSRAPIAYVYKRLVRMALESRFVQVAPVALKVLGIVLVMLY,62500
9,LCLPFFLSLLPFFQSWRYVNISLLLFFYSSSIFSPSFPFIYYFTVFFLSFLLL,29900
10,TWILNIPWPQTHMVAVLSLAGFLYFLILDIYEYMCYSYLVLLGTMWFVDIMFF,73600
11,AGGAFETGGKRRKGKEKVRLDYNAIAGGQVALVKDDLELLIVHLLISRYLGEA,19000
12,LCRVQESILQTFGMTGLLCMQRGINFTIYCVLTCTVLHLVAITSPDPDLNRDA,40200
13,MYCSLQTLLFRFFAYWQGMTFFGFLFCFHVLGSQNLFFGSCFVLLLMQLLCLF,58900
14,LIVVTLSWDVAVIITFLKHRITLRRLKMQSFLSLSFLFKMLIICIFRFFIGVC,88200
15,FFHVTVRVASQGCGLAFGIHGFENTDVFLAYLILGAEGYFTLVLCTFRFLVSW,66200
16,MSRLSIYVALLLLESICICWRGWIAPRHVAMESVQINFKTGRFLVYFMFPIKA,32000
17,LYILLVFPILLLMMLHSLVTFLYVRAIDPLYGSVPINLHLDKIVWVATFAGAF,63200
18,MAALLWVLAVCLWIHPLSILAFTFHSVEGFKLVREILLDVLPTFDPHSYQIDG,53200
19,ISKTIAVLELACDVLHHNPGVFIISVLLLVIFIAFTAIWMVLFNRLWLIGHLN,56000
20,IMLVLNWLAVHGLFLVKKKSEKSVYHALHKMPTPPFSDSLRQQCRDRLLACLA,36700
21,SILLMQHNLYHFIHFFKKIRQVIEKGEYPSFKQELIQNLGQTGWWKFLNAKSL,59500

row,Sequence,transcriptional activation domain activity
1,MKFLFILCCHILPYVPIFYLMSLSSIFLHFTLLFIYLITLFYTFAYIFIFSFY,50400
2,NLRVIELRFSLRFYRDVVFCRKLLRKHEVFVTIIKLLLCLLTLDIEGLKIKVG,46500
3,PPLSSPFLCFPLCFPLPPLPLFPPSPLFPLSSPPSLFPFPPLPLFNPFLPSLC,29800
4,GIESAGLEVITAQQLEQYAKDQKVLSNCMERNGITAVLCVGLRYIACLIMIIY,66200
5,PEVMHALLFWTSNLLLFGINAIAFSKVSWFITLIRLVVNCRQKVALWMLMVFS,60100
6,MFSCLLFLAYLPAISLIPCDCFWVFFFFFFLGCVKTRVLYLFFFFLCCSWFFY,47400
7,MKILSFLCTYSLSFTLTIPNSLLSFLRTLFNFTNNYKYMILLLLGYLCLIGLF,35600
8,EFVQVAAKPVAKKEESSDEDSDDESEDEKPAAKKAAAPVKVCSGFPYANIALI,32200
9,ISVLGNQQIPGISHGDGLLPDVDGLLGNDTFWSFTDAAWMGEIEDNISGFIWD,143000
10,LINYLLVLLVFRKWLKGHQVPLFVIMSYAWTRQLSFMDNVRRTNKRATLAMLR,57200
11,MRFLFFLLLFLFFFPPPLPPISSLQGCFFVIFFFGFFIFSSFLLFYAVFFFIV,39000
12,SNPKELFFIRILLDLSWIDMRVAICSLRPILGEEPRKFREMLLVLPTLCSEIY,66100
13,RDARARRTRERRRGRAERAPEEGRREERRKRGRGARGGRARGGAAGRGGRGEG,32200
14,TLRVDSLTGMIRIIRHVDFDGLPRPSGSGVITPFGIVFGGVCRGYWLWLWKVD,35800
15,KKDEEQTSSSTPSPPPQESAEKNEAKDEEKPAEQKAKKKPKKLQVRSAGTPAP,7630
16,FLGTAMYFLYGESVIYYFKHILLVDRILLPLATHHRFISFMLYIIGFVFFVFS,51000
17,VNLHRARLRSCLDIIHLHIALGSTKRGLERVFELRRMLVSLLALHPFFRPTST,46100
18,AKSLRLTIDEVKMLHRPVIWYLIVMLVDTLTATYLQYNGFLLHRTHLRETLSV,44200
19,MSRQPVRAIFLYDILLFFLSGRSIDFVLIFSTWPFFFSFFLSFSLPPYFYFIL,71500
